Results taken from patent US20200270125A1 (OMEROS, published 2020).
Residue numbers refer to the chain shown, from its start.

T1: human MASP-3 (construct not stated) (human)
T1 chain: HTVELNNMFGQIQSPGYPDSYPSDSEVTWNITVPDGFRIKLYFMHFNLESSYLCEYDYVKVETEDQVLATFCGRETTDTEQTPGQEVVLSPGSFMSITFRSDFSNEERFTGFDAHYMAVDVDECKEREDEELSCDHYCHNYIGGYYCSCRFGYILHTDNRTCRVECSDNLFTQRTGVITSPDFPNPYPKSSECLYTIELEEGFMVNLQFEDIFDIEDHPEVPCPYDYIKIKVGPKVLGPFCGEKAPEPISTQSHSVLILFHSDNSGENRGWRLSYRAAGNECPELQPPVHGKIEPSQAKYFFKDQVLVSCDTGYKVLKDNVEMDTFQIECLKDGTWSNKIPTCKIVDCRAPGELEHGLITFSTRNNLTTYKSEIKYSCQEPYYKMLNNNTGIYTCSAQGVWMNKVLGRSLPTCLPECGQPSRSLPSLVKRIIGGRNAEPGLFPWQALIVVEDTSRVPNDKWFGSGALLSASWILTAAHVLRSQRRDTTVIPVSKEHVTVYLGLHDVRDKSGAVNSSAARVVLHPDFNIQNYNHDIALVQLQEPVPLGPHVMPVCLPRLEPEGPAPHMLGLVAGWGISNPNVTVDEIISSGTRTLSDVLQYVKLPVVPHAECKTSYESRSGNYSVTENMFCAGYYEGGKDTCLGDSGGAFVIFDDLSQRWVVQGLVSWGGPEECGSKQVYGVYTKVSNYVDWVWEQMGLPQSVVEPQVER

T2: recombinant human MASP-1A (S646A, CCP1-CCP2-SP fragment) (human, UniProt P48740 298-699, limits assumed)
T2 chain: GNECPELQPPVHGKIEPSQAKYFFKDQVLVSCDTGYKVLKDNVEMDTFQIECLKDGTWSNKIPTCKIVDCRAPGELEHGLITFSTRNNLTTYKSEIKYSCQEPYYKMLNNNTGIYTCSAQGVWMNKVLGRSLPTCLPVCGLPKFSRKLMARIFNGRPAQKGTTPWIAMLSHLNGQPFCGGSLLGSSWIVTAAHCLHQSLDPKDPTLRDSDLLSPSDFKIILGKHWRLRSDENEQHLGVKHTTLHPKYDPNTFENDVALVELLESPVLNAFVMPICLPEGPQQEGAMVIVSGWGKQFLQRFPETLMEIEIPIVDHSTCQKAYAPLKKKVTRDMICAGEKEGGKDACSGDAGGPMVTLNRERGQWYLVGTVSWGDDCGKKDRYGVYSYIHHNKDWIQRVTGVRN

T3: human MASP-3 CCP1-CCP2-SP fragment (human)
T3 construct: limits of the assay construct are not restated; also called rMASP-3 (CCP1-CCP2-SP)
T3 chain: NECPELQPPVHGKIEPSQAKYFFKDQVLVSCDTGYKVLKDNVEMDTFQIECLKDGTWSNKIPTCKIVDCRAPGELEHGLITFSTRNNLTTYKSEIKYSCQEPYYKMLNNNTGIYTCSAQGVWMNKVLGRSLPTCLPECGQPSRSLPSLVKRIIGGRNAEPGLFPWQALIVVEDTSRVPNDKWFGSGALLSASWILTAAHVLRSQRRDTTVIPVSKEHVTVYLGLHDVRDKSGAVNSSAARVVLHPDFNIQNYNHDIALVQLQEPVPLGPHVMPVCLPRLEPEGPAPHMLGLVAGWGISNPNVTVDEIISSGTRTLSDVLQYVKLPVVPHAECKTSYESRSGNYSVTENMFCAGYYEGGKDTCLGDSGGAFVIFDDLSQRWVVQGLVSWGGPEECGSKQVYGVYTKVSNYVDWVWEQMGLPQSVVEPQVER

T4: recombinant full-length mouse MASP-3 (mouse)
T4 construct: Entry is with leader; also called mouse full length MASP-3
T4 chain: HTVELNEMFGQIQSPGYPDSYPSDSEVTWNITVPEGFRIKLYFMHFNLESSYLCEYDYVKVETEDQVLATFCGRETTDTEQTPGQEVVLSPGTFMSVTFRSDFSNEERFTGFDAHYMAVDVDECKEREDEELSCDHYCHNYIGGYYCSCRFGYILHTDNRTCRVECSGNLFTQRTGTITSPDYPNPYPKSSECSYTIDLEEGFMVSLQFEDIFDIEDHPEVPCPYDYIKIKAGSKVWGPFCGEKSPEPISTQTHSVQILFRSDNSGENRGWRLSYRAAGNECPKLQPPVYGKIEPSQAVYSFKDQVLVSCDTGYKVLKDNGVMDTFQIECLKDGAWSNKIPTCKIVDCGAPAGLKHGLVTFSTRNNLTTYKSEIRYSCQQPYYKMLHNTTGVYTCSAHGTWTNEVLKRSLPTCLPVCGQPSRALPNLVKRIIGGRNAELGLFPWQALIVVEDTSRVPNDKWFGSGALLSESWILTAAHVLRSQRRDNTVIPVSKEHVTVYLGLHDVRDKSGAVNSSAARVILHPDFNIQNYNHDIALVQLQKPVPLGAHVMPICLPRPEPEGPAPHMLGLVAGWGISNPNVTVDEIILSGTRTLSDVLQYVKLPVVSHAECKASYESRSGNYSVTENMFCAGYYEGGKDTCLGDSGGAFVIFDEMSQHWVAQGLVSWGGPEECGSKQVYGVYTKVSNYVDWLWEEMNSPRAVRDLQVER

B1: MASP-3 mAb 2D7 (mouse-human chimeric IgG4) (antibody, V domains shown)
VH: EVQLQQSGPELVKPGASVKVSCKASGYTLTDYYMNWVKQSHGKSLEWIGDVNPNNDGTTYNQKFKGRATLTVDKSSNTASMELRSLTSEDSAVYYCAICPFYYLGKGTHFDYWGQGTSLTVSS
VL: DIQMTQTPASLSASLGDRVTISCRASQDISNFLNWYQQKPNGTVKLLVFYTSRLHSGVPSRFSGSGSGAEHSLTISNLEQEDVATYFCQQGFTLPWTFGGGTKVEIKR
B2: MASP-3 mAb 1G4 (mouse-human chimeric IgG4) (antibody, V domains shown)
VH: QVQLKQSGAELMKPGASVKLACKATGYTFTGYWIEWIKQRPGQGLEWIGEMLPGSGSTHYNEKFKGKATFTADTSSNTAYMQLSGLTTEDSAIYYCVRSIDYWGQGTTLTVSS
VL: DVLMTQTPLSLPVSLGEQASISCRSSQSLVQSNGNTYLHWYLQKPGQSPKLLIYKVSNRFSGVPDRFSGSGSGTDFTLKISRVEAEDLGVYFCSQSTHVPPTFGGGTKLEIKR
B3: MASP-3 mAb 1F3 (mouse-human chimeric IgG4) (antibody, V domains shown)
VH: QVQLKQSGPELVKPGASVKLSCKASGYTFTSNDINWVKQRPGQGLEWIGWIYPRDGSIKYNEKFTDKATLTVDVSSSTAYMELHSLTSEDSAVYFCSGVEDSYWGQGTLVTVSS
VL: DIVMTQSPSSLAVSAGERVTMSCKSSQSLLISRTRKNYLSWYQQKPGQSPKLLIYWASTRESGVPDRFTGSGSGTDFTLTISSVQAEDLAVYYCKQSYNLYTFGGGTKLEIKR
B4: MASP-3 mAb 4D5 (mouse-human chimeric IgG4) (antibody, V domains shown)
VH: QVQLKQSGPELVKPGASVKLSCKASGYTFTTDDINWVKQRPGQGLEWIGWIYPRDDRTKYNDKFKDKATLTVDTSSNTAYMDLHSLTSEDSAVYFCSSLEDTYWGQGTLVAVSS
VL: B3 VL with R18K, S22T, I31N, S40A, T78S
B5: MASP-3 mAb 4B6 (mouse-human chimeric IgG4) (antibody, V domains shown)
VH: B3 VH with S57T, I58T, K63E, Y80F, G98S
VL: B3 VL with R18K
B6: MASP-3 mAb 10D12 (mouse-human chimeric IgG4) (antibody, V domains shown)
VH: QIQLVQSGPELKKPGETVKISCKASGYIFTSYGMSWVRQAPGKGLKWMGWINTYSGVPTYADDFKGRFAFSLETSARTPYLQINNLKNEDTATYFCARGGEAMDYWGQGTSVTVSS
VL: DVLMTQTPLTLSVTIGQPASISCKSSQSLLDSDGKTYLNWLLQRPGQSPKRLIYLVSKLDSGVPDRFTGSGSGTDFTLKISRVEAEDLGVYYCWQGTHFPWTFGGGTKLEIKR
B7: 10D12 Parental Fab (Fab, V domains shown)
VH: B6 VH
VL: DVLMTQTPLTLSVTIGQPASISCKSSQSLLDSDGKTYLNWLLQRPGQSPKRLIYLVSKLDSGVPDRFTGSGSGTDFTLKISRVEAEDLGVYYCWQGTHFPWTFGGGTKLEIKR
notes: Monovalent Fab; also called 10D12 Fab

Experiments:
[1] = biological target: T1, human MASP-3 (construct not stated); assay: cell-based or functional assay
[2] = biological target: T5, recombinant human MASP-2 (CCP1-CCP2-SP fragment) (human, UniProt O00187 298-686, limits assumed); assay: ELISA: recombinant MASP-2 (CCP1-CCP2-SP) coated directly on the plate, A450
T5 construct: domain: CCP1-CCP2-SP fragment
Procedure: (§1) The plate was then washed (PBS-T, 0.05%) and the candidate MASP-3 antibodies were added followed by incubation for one hour at room temperature. The plate was washed (PBS-T, 0.05%) and a detection antibody was added (mouse anti-human kappa-HRP, SouthernBiotech #9230-05) for one hour at room temperature. After another wash (PBS-T, 0.05%) the plate was developed (5 minutes) with OPT EIA TMB (BD Biosciences #555214). Absorbance reading at A450 was measured using the Spectramax M5e plate reader.

[3] = biological target: T2, recombinant human MASP-1A (S646A, …); assay: ELISA: recombinant MASP-1A (S646A, CCP1-CCP2-SP) coated directly on the plate, A450
Procedure: as §1

[4] = biological target: T3, human MASP-3 CCP1-CCP2-SP fragment; assay: sandwich ELISA, MASP-3 CCP1-CCP2-SP captured by αM3-259
Procedure: as §1

[5] = biological target: T1, human MASP-3 (construct not stated); assay: not described at this place
[6] = biological target: T1, human MASP-3 (construct not stated); assay: cell-based or functional assay
[7] = biological target: T3, human MASP-3 CCP1-CCP2-SP fragment; assay: cell-based or functional assay
[8] = biological target: T4, recombinant full-length mouse MASP-3; assay: sandwich ELISA, full-length mouse MASP-3 captured by αM3-259
Procedure: as §1

[9] = biological target: T3, human MASP-3 CCP1-CCP2-SP fragment; assay: sandwich ELISA: human MASP-3 CCP1-CCP2-SP captured on aM3-259, mAb detected with anti-human kappa-HRP, A450
Procedure: as §1

[10] = biological target: T1, human MASP-3 (construct not stated); assay: cross-species binding experiments
[11] = biological target: T1, human MASP-3 (construct not stated); assay: ELISA, monovalent Fab

T5 sequence (O00187 298-686 limits assumed): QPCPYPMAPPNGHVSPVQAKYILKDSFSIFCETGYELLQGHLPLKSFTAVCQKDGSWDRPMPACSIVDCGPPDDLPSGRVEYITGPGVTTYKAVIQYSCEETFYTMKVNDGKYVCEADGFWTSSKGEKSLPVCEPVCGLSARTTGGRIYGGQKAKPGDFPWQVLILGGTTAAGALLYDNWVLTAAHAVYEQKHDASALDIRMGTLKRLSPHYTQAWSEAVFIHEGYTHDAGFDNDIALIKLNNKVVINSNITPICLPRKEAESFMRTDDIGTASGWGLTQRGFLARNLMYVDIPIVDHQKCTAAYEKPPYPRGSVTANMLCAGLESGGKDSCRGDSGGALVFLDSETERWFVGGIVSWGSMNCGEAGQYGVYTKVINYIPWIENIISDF

Row | Binder | Inhibition of Rabbit Erythrocyte Lysis (IC50 nM), 10% factor D-depleted human serum [1] [nM] | binding result [2] | binding result [3] | EC50 [4] [nM] | binding affinity [5] [pM] | Inhibition of Factor Bb Deposition on Zymosan (IC50 nM), 10% factor D-depleted human serum with pro-factor D [6] [nM] | inhibition of MASP-3-dependent fluorogenic tripeptide (BOC-V-P-R-AMC) cleavage [7] [nM] | EC50 [8] [nM] | EC50 [9] [nM] | avidity [10] [pM] | EC50 [11] [nM]
1 | B1 | 5.4 | no binding (tested: about 20 nM (log10 about 1.3)) | no binding (tested: about 20 nM (log10 about 1.3)) | 0.122 | ≤ 500 | 3.5 |  |  |  |  | 
2 | B2 | 2.7 | no binding (tested: about 20 nM (log10 about 1.3)) | no binding (tested: about 20 nM (log10 about 1.3)) | 0.177 | ≤ 500 | 1.1 | 29.6 | 3.7 |  |  | 
3 | B3 | 0.2 | no binding (tested: about 20 nM (log10 about 1.3)) | no binding (tested: about 20 nM (log10 about 1.3)) | 0.236 | ≤ 500 | 0.1 | 33 | 0.111 |  |  | 
4 | B4 | 0.1 | no binding (tested: about 20 nM (log10 about 1.3)) | no binding (tested: about 20 nM (log10 about 1.3)) | 0.058 | ≤ 500 | 0.4 | 27.5 | 0.098 | 0.113 |  | 
5 | B5 | 0.2 | no binding (tested: about 20 nM (log10 about 1.3)) | no binding (tested: about 20 nM (log10 about 1.3)) | 0.211 | ≤ 500 | 0.2 | 26 | 0.188 |  |  | 
6 | B6 |  | no binding (tested: about 20 nM (log10 about 1.3)) | no binding (tested: about 20 nM (log10 about 1.3)) | 0.089 | ≤ 500 | 0.5 | 30.9 | 0.081 | 0.023 |  | 
7 | B7 |  |  |  |  |  |  |  |  |  | < 500 | 0.108
